Test results published in patent US20220025069A1.
Read-outs that look alike come from different tables or passages of the source.

Columns and labels:
[1] = target: human 4-1BB (CD137), cell-surface-expressed on Jurkat-hu4-1BB-NFkB-luc2 reporter cell line (human) (UniProt Q07011); test: cell-based or functional assay; design: AUC of activation curve, NFκB-luciferase in Jurkat-hu4-1BB-NFκB-luc2, crosslinking by WM-266-4 cells: unit not given beside the values
[2] = target: human 4-1BB (CD137), cell-surface-expressed on Jurkat-hu4-1BB-NFkB-luc2 reporter cell line (human) (UniProt Q07011); test: cell-based or functional assay; design: unit not given beside the values
[3] = target: human HER2, cell-surface-expressed on KPL4 and NCI-N87 cells (human) (UniProt P04626); test: flow cytometry, KPL4 cells, gMFI curve
[4] = target: human HER2, cell-surface-expressed on KPL4 and NCI-N87 cells (human) (UniProt P04626); test: flow cytometry, NCI-N87 cells, gMFI curve
[5] = target: human Fibroblast Activation Protein (FAP), cell-surface-expressed on NIH/3T3-huFAP clone 19 cells (human) (UniProt Q12884); test: flow cytometry, NIH/3T3-huFAP clone 19 cells, gMFI curve
[6] = target: human 4-1BB (CD137), cell-surface-expressed on Jurkat-hu4-1BB-NFkB-luc2 reporter cell line (human) (UniProt Q07011); test: flow cytometry, Jurkat-hu4-1BB-NFkB-luc2 cells, gMFI curve
[7] = target: human 4-1BB (CD137), cell-surface-expressed on Jurkat-hu4-1BB-NFkB-luc2 reporter cell line (human) (UniProt Q07011); test: as above; remark: listed apart in the source

- AUC of activation curve, NFκB-luciferase in Jurkat-hu4-1BB-NFκB-luc2, crosslinking by NIH/3T3-huFAP clone 19 cells [1]: 195
- AUC of activation curve, NFκB-luciferase in Jurkat-hu4-1BB-NFκB-luc2, crosslinking by WM-266-4 cells [1]: 191
- AUC of activation curve, NFκB-luciferase in Jurkat-hu4-1BB-NFκB-luc2, crosslinking by KPL4 cells [2]: 253
- AUC of activation curve, NFκB-luciferase in Jurkat-hu4-1BB-NFκB-luc2, crosslinking by NCI-N87 cells [2]: 127
- AUC of activation curve, NFκB-luciferase in Jurkat-hu4-1BB-NFκB-luc2, crosslinking by SK-Br3 cells [2]: 129
- Area under the curve (AUC) of binding curve [3]: 177
- Area under the curve (AUC) of binding curve [4]: 1130
- Area under the curve (AUC) of binding curve [5]: 362
- Area under the curve (AUC) of binding curve [6]: 87
- Area under the curve (AUC) of binding curve [7]: 101
Substance: DP47 huIgG1 PG LALA (antibody)
